As usually defined, the stoichiometry N is a count of units in the complex or per binding partner. The term Kd denotes a measure of binding affinity in units of concentration. Higher therefore signals weaker binding.

Results on one molecule are retold here after publication PMC3761943 (Cell, 2013).

Data set [1] concerns the molecule itself. In words: SEC.
The target in data set [2] is T1, kinesin-4ΔN (human kinesin-4, aa 733-1232) (human, UniProt O95239 733-1232).
T1 sequence (looked up): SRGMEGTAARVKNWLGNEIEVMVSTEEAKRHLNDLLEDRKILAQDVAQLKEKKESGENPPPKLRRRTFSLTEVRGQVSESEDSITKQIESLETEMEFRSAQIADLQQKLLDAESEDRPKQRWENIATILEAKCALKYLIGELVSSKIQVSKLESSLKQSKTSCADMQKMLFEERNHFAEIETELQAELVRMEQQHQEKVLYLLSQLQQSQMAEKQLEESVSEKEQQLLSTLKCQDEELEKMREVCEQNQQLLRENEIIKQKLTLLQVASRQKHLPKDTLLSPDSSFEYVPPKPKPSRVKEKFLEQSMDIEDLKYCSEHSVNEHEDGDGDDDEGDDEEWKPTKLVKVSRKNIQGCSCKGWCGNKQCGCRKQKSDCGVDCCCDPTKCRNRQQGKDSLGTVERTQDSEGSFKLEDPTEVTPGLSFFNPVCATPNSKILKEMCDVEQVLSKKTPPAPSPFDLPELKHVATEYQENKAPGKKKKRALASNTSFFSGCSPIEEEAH
In words: pull-down.

B1: PRC1ΔN1SΔC (human PRC1, aa 19-486) (domain or fragment, UniProt O43663 19-486, looked up)
chain: LNHLREIWELIGIPEDQRLQRTEVVKKHIKELLDMMIAEEESLKERLIKSISVCQKELNTLCSELHVEPFQEEGETTILQLEKDLRTQVELMRKQKKERKQELKLLQEQDQELCEILCMPHYDIDSASVPSLEELNQFRQHVTTLRETKASRREEFVSIKRQIILCMEALDHTPDTSFERDVVCEDEDAFCLSLENIATLQKLLRQLEMQKSQNEAVCEGLRTQIRELWDRLQIPEEEREAVATIMSGSKAKVRKALQLEVDRLEELKMQNMKKVIEAIRVELVQYWDQCFYSQEQRQAFAPFCAEDYTESLLQLHDAEIVRLKNYYEVHKELFEGVQKWEETWRLFLEFERKASDPNRFTNRGGNLLKEEKQRAKLQKMLPKLEEELKARIELWEQEHSKAFMVNGQKFMEYVAEQWEMHRLEKERAKQERQLKNKKQTETEMLYGSAPRTPSKRRGLAPNTPGKAR
Turning to B1, in data set [1], the “stoichiometry N” value was found to be 2. The dissociation constant (Kd) in data set [2] came out at 210 ± 10 nM.
